Laboratory results: PMC4605297

Biological target: T1, SsOGT wild type (Sulfolobus solfataricus) (UniProt Q97VW7)
T1 sequence: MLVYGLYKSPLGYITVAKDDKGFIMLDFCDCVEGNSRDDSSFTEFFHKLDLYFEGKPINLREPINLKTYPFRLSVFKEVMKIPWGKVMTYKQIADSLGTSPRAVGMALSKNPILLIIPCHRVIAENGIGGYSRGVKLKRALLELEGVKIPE
Experiment: competition
Conditions: EMSA: 0-25 uM protein, 0.2 uM probe, 37 C 10 min, 10 ul, buffer as ref. 17, 8% native PAGE in 1X TBE pH 8.3, competition: BG-VG assay, 50 C under ref. …

Row | Sequence | Ki (O6-methylguanine at position 21 of strand 1) [nM] | Ki (O6-methylguanine at position 26 of strand 1) [nM]
1 | GGACACTGTACGTTAAGGCGGATCGAATTAGGATTAA / GGTTAATCCTAATTCGATCGCCTTAACGTACAGTGT [ds-UPm] | 280 | –
2 | GGCAGTAGGCCTAGCATGACAATCTGCATTGGTGATCACGG / CGCTCATCCACAATGCAGATTGTCATGCTAGGCCTACTGCC [ds-Fwdm26] | – | 830
